{
  "source": "paper PMC4134300",
  "about": "“Biochemical Characterization of Two Thermostable Xylanolytic Enzymes Encoded by a Gene Cluster of Caldicellulosiruptor owensensis” (PLoS ONE, 2014)",
  "substrate": "O=[N+]([O-])c1ccc(O[C@@H]2OC[C@@H](O)[C@H](O)[C@H]2O)cc1",
  "test": "purified protein",
  "assay_type": "biochemical, Caldicellulosiruptor owensensis",
  "conditions": "50 mM sodium citrate, 150 mM NaCl, pH 5.0, 75 °C, 0.05 to 2.4 mM pNPX",
  "data": [
    {"protein": "Coxyl A (Caldicellulosiruptor owensensis OL) (protein, His-tagged in pET-28b(+), E. coli BL21(DE3); homodimer) MKIELYPEKTSGKINKFWTKCVGSCHAATALREDWRRQLRKCRQELGFEYLRCHGWLNDDMSVCFRNEDGKLWFSFFNIDTIIDFLLDIGMKPFIELSFMPEALASGTKTVFHYKGNITPPKSYEEWGQLVEELARHLVKRYGKNEVKEWFFEVWNEPNLKDFFWAGTMEEYFELYKHAAFAIKKVDPDLKVGGPASAIDAWIPELKEFCEKNNVPIDFISTHQYPTDLAFSTSSNMEEAMAKAKRGELADRVKKAIEEASPLPVYYTEWNNSPSPRDPYHDIPYDAAFIVKTIIDIVDLPLGCYSYWTFTDIFEECGQSSLPFHGGFGLLNIHGIPKPSYRAFQILDKLNGEKINAEAEDISPTIDFIATKNNNEIVLIISNHNVPLSPIENENILVTVNGLKGCKEISIERIDEYNANPKRKWVEMGSPEYLNKDQIEELIEASKPKKEVVSWRITGDNQLAFELNILPHSVLGVTIKTE", "values": [
      {"measurement": "Km", "result": "1.6 ± 0.1", "unit": "mM"},
      {"measurement": "Vmax", "result": 3930, "unit": "µmol/min/mg"},
      {"measurement": "kcat", "result": "3630 ± 122", "unit": "s⁻¹"}
    ]}
  ]
}
